Results as given in patent US20150056209A1, “PEPTIDE MIMOTOPES TO OXIDATION SPECIFIC EPITOPES” (The Regents of the University of California, priority 2012, published 2015).
Bridges are numbered along the chain shown (N, C = ends). Where no end group is shown, it is not given here.

Legend:
[1] = molecular target: LRO4; test: phage ELISA, coated LRO4
[2] = molecular target: control isotype anti-KLH IgM Ab (C48-6; BD Bioscience-Pharmingen); test: phage ELISA, coated control IgM
[3] = molecular target: LRO4; test: competitive phage ELISA, coated LRO4; competitor MDA-LDL 50 µg/mL

For ACNNWNMPLCGGGS (peptide, not shown: large carriers, disulfide 2-10; also: C-terminus fused to phage pIII) [phage clones Ca1, Ca7], the OD (binding of phages to LR04) [1] was 0.8 OD, the OD (binding of phages to control IgM) [2] was 0.1 OD and the B/Bo (inhibition of binding to LR04) [3] was 0.04 B/Bo.

With ACNNRNMPLCGGGS (peptide, not shown: large carriers, disulfide 2-10; also: C-terminus fused to phage pIII) [phage clones Ca59, Cb1] the OD (binding of phages to LR04) [1] was 0.8 OD, the OD (binding of phages to control IgM) [2] was 0.1 OD and the B/Bo (inhibition of binding to LR04) [3] was 0.06 B/Bo.

ACNNYNMPLCGGGS (peptide, not shown: large carriers, disulfide 2-10; also: C-terminus fused to phage pIII) [phage clone Cb589] gave an OD (binding of phages to LR04) [1] of 0.8 OD, an OD (binding of phages to control IgM) [2] of 0.1 OD and a B/Bo (inhibition of binding to LR04) [3] of 0.03 B/Bo.

Binder ACNNQNMPLCGGGS (peptide, not shown: large carriers, disulfide 2-10; also: C-terminus fused to phage pIII) [phage clone Cb9] has an OD (binding of phages to LR04) [1] of 0.7 OD, an OD (binding of phages to control IgM) [2] of 0.01 OD and a B/Bo (inhibition of binding to LR04) [3] of 0.02 B/Bo.

With ACNNWKMPLCGGGS (peptide, not shown: large carriers, disulfide 2-10; also: C-terminus fused to phage pIII) [phage clone Cb4] the OD (binding of phages to LR04) [1] was 0.6 OD, the OD (binding of phages to control IgM) [2] was 0.1 OD and the B/Bo (inhibition of binding to LR04) [3] was 0.02 B/Bo.

ACNNSHMPLCGGGS (peptide, not shown: large carriers, disulfide 2-10; not fully specified) [phage clones Ca9, Cb3, Ca8, Ca10] gave an OD (binding of phages to LR04) [1] of 0.9 OD, an OD (binding of phages to control IgM) [2] of 0.2 OD and a B/Bo (inhibition of binding to LR04) [3] of 0.04 B/Bo.

ACKNSXQPLCGGGS (peptide, not shown: large carriers, disulfide 2-10; not fully specified; X: residue not identified in the source) [phage clone Ca4] gave an OD (binding of phages to LR04) [1] of 0.9 OD, an OD (binding of phages to control IgM) [2] of 0.1 OD and a B/Bo (inhibition of binding to LR04) [3] of 0.13 B/Bo.

Binder ACNNSXMPLCGGGS (peptide, not shown: large carriers, disulfide 2-10; not fully specified; X: residue not identified in the source) [phage clone Ca6] has an OD (binding of phages to LR04) [1] of 0.7 OD, an OD (binding of phages to control IgM) [2] of 0 OD and a B/Bo (inhibition of binding to LR04) [3] of 0.04 B/Bo.

ACQNSHMPLCGGGS (peptide, not shown: large carriers, disulfide 2-10; also: C-terminus fused to phage pIII) [phage clone Ca3] gave an OD (binding of phages to LR04) [1] of 0.5 OD, an OD (binding of phages to control IgM) [2] of 0.1 OD and a B/Bo (inhibition of binding to LR04) [3] of 0.04 B/Bo.

ACNNSNMPLCGGGS (peptide, not shown: large carriers, disulfide 2-10; also: C-terminus fused to phage pIII) [phage clone Cb10] showed an OD (binding of phages to LR04) [1] of 0.6 OD, an OD (binding of phages to control IgM) [2] of 0.2 OD and a B/Bo (inhibition of binding to LR04) [3] of 0.02 B/Bo.

For ACNNSKMRLCGGGS (peptide, not shown: large carriers, disulfide 2-10; also: C-terminus fused to phage pIII) [phage clone Ca2], the OD (binding of phages to LR04) [1] was 0.8 OD, the OD (binding of phages to control IgM) [2] was 0.2 OD and the B/Bo (inhibition of binding to LR04) [3] was 0.12 B/Bo.

ACDWAPHFTCGGGS (peptide, not shown: large carriers, disulfide 2-10; also: C-terminus fused to phage pIII) [phage clone Cb2] showed an OD (binding of phages to LR04) [1] of 1 OD, an OD (binding of phages to control IgM) [2] of 0.2 OD and a B/Bo (inhibition of binding to LR04) [3] of 0.03 B/Bo.

For NSWTNASLSTFHGGGS (peptide, not shown: large carriers) [phage clone A40], the OD (binding of phages to LR04) [1] was 0.89 OD, the OD (binding of phages to control IgM) [2] was 0.04 OD and the B/Bo (inhibition of binding to LR04) [3] was 0.1 B/Bo.

In the case of NSRTNNSQWTFQGGGS (peptide, not shown: large carriers) [phage clone A34], the OD (binding of phages to LR04) [1] is reported as 0.82 OD, the OD (binding of phages to control IgM) [2] is reported as 0.11 OD and the B/Bo (inhibition of binding to LR04) [3] is reported as 0.11 B/Bo.

For ESWTNSWAHYFGGGGS (peptide, not shown: large carriers) [phage clones A36, B41, M35], the OD (binding of phages to LR04) [1] was 1.16 OD, the OD (binding of phages to control IgM) [2] was 0.03 OD and the B/Bo (inhibition of binding to LR04) [3] was 0.14 B/Bo.

ESWTNSWAMYFGGGGS (peptide, not shown: large carriers) [phage clone M2] was tested, and the OD (binding of phages to LR04) [1] was 1.17 OD, the OD (binding of phages to control IgM) [2] was 0.03 OD and the B/Bo (inhibition of binding to LR04) [3] was 0.2 B/Bo.

Binder QSYTNDDVLRISGGGS (peptide, not shown: large carriers) [phage clone M19] has an OD (binding of phages to LR04) [1] of 1.67 OD, an OD (binding of phages to control IgM) [2] of 0.03 OD and a B/Bo (inhibition of binding to LR04) [3] of 0.25 B/Bo.

Work on QNMNNWTLASIMGGGS (peptide, not shown: large carriers) [phage clone A31] yielded an OD (binding of phages to LR04) [1] of 0.85 OD, an OD (binding of phages to control IgM) [2] of 0.08 OD and a B/Bo (inhibition of binding to LR04) [3] of 0.25 B/Bo.

Binder EVMNNWTLASIMGGGS (peptide, not shown: large carriers) [phage clone M30] has an OD (binding of phages to LR04) [1] of 1.04 OD, an OD (binding of phages to control IgM) [2] of 0.03 OD and a B/Bo (inhibition of binding to LR04) [3] of 0.06 B/Bo.

For ASISNLTLSRFMGGGS (peptide, not shown: large carriers) [phage clone M15], the OD (binding of phages to LR04) [1] was 1.34 OD, the OD (binding of phages to control IgM) [2] was 0.04 OD and the B/Bo (inhibition of binding to LR04) [3] was 0.15 B/Bo.

HSWSNYWGHQHAGGGS (peptide, not shown: large carriers) [phage clone A32] gave an OD (binding of phages to LR04) [1] of 0.98 OD, an OD (binding of phages to control IgM) [2] of 0.02 OD and a B/Bo (inhibition of binding to LR04) [3] of 0.18 B/Bo.

HRISNYAMELHSGGGS (peptide, not shown: large carriers) [phage clone G4] was tested, and the OD (binding of phages to LR04) [1] was 1.45 OD, the OD (binding of phages to control IgM) [2] was 0.04 OD and the B/Bo (inhibition of binding to LR04) [3] was 0.1 B/Bo.

Binder HSLTNTQMTQLSGGGS (peptide, not shown: large carriers) [phage clone M31] has an OD (binding of phages to LR04) [1] of 1.35 OD, an OD (binding of phages to control IgM) [2] of 0.03 OD and a B/Bo (inhibition of binding to LR04) [3] of 0.4 B/Bo.

For HSLSNIQMATLAGGGS (peptide, not shown: large carriers) [phage clones M10, G8], the OD (binding of phages to LR04) [1] was 1.16 OD, the OD (binding of phages to control IgM) [2] was 0.03 OD and the B/Bo (inhibition of binding to LR04) [3] was 0.1 B/Bo.

In the case of HRMTNAMHHFMGGGGS (peptide, not shown: large carriers) [phage clone A38], the OD (binding of phages to LR04) [1] is reported as 0.64 OD, the OD (binding of phages to control IgM) [2] is reported as 0.21 OD and the B/Bo (inhibition of binding to LR04) [3] is reported as 0.1 B/Bo.

Binder HRMTNNAMDVFMGGGS (peptide, not shown: large carriers) [phage clones M6, G10] has an OD (binding of phages to LR04) [1] of 1.56 OD, an OD (binding of phages to control IgM) [2] of 0.03 OD and a B/Bo (inhibition of binding to LR04) [3] of 0.2 B/Bo.

Work on HRLTNSEQAALPGGGS (peptide, not shown: large carriers) [phage clones M3, M5] yielded an OD (binding of phages to LR04) [1] of 1.56 OD, an OD (binding of phages to control IgM) [2] of 0.03 OD and a B/Bo (inhibition of binding to LR04) [3] of 0.1 B/Bo.

TAVTNSMMERLWGGGS (peptide, not shown: large carriers) [phage clone M8] gave an OD (binding of phages to LR04) [1] of 1.57 OD, an OD (binding of phages to control IgM) [2] of 0.04 OD and a B/Bo (inhibition of binding to LR04) [3] of 0.2 B/Bo.
